These results are taken from patent US20100260668A1 (published 2010).

Experiment [1] concerns the target T1, DLL4 (DLL4 ECD/His tag) (UniProt Q9NR61 27-529, limits assumed).
T1 construct: extracellular domain; Bought reagent
The experiment in a line: Direct Bind ELISA, antigen on plate; N-terminal VD.

Experiment [2] concerns the target T2, ErbB3 (ErbB3 ECD/FC Chimera-His tag) (UniProt P21860 20-643, limits assumed).
T2 construct: extracellular domain; Bought reagent
Put plainly: Direct Bind ELISA, antigen on plate.

Experiment [3] addresses T3, RON (MSP Receptor ECD-His tag) (UniProt Q04912 25-957, limits assumed).
T3 construct: extracellular domain; Bought reagent
The experiment in a line: Direct Bind ELISA, antigen on plate; C-terminal VD.
Procedure: (§1) Enzyme Linked Immunosorbent Assays to screen for antibodies that bind a desired target antigen were performed as follows. […] Plates were washed four times with PBS containing 0.02% Tween 20. Plates were blocked by the addition of 300 μL/well blocking solution (non-fat dry milk powder, various retail suppliers, diluted to 2% in PBS) for ½ hour at room temperature. Plates were washed four times after blocking with PBS containing 0.02% Tween 20.
(§2) Alternatively, one hundred microliters per well of 10 μg/ml of Histidine (His) tagged desired target antigen (R&D Systems, Minneapolis, Minn.) was added to ELISA plates coated with monoclonal mouse anti-polyHistidine antibody as described above and incubated for 1 hour at room temperature. Wells were washed four times with PBS containing 0.02% Tween 20.
(§3) One hundred microliters of antibody or DVD-Ig preparations diluted in blocking solution as described above was added to the desired target antigen plate or desired target antigen/FC fusion plate or the anti-polyHistidine antibody/His tagged desired target antigen plate prepared as described above and incubated for 1 hour at room temperature. Wells are washed four times with PBS containing 0.02% Tween 20.

For experiment [4], the target named is T4, HGF (HGF-His tag) (UniProt P14210 32-728).
T4 construct: Bought reagent
The experiment in a line: Direct Bind ELISA, antigen on plate; N-terminal VD.

Experiment [5] addresses T5, PlGF (Placental GF) (UniProt P49763-2 21-149, limits assumed).
T5 construct: Bought reagent
T5 sequence (looked up): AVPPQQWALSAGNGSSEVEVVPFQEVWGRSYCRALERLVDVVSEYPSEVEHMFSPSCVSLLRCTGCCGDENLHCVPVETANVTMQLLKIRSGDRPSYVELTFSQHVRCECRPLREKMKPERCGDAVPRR
Put plainly: Direct Bind ELISA, antigen on plate; N-terminal VD.

Experiment [6] addresses T1, DLL4 (DLL4 ECD/His tag). Put plainly: Direct Bind ELISA, antigen on plate; C-terminal VD.
Procedure: as §1, §2, §3
Experiment [7] addresses T5, PlGF (Placental GF). The experiment in a line: Direct Bind ELISA, antigen on plate; C-terminal VD.
Procedure: as §1, §2, §3

T4 sequence (P14210 32-728 limits assumed): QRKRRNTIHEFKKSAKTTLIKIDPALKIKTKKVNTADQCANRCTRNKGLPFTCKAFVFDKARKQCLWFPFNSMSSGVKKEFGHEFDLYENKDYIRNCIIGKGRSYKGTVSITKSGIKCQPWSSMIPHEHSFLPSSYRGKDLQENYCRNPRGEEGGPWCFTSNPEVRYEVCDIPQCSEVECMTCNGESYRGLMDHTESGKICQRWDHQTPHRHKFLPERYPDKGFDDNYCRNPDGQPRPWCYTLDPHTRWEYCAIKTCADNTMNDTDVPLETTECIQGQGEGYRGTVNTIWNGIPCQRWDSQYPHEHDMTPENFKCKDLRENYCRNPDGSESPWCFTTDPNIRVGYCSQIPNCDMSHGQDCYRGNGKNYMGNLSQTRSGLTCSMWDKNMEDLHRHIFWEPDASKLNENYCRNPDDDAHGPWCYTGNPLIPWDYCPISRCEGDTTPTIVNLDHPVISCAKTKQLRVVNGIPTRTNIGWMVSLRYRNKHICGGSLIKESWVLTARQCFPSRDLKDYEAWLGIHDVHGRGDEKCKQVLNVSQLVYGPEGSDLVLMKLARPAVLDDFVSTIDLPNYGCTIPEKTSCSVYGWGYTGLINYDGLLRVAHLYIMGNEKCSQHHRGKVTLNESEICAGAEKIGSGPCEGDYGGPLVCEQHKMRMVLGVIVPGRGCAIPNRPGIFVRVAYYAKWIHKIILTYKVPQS

B1: DVD044 (DLL4 (seq. 1) and VEGF (seq. 1) DVD-Ig) (bispecific antibody, IgG1)
VH: EVQLVESGGGLVQPGGSLRLSCAASGFTFTDNWISWVRQAPGKGLEWVGYISPNSGFTYYADSVKGRFTISADTSKNTAYLQMNSLRAEDTAVYYCARDNFGGYFDYWGQGTLVTVSSASTKGPEVQLVESGGGLVQPGGSLRLSCAASGYTFTNYGMNWVRQAPGKGLEWVGWINTYTGEPTYAADFKRRFTFSLDTSKSTAYLQMNSLRAEDTAVYYCAKYPHYYGSSHWYFDVWGQGTLVTVSS
VL: DIQMTQSPSSLSASVGDRVTITCRASQDVSTAVAWYQQKPGKAPKLLIYSASFLYSGVPSRFSGSGSGTDFTLTISSLQPEDFATTYYCQQSYTGTVTFGQGTKVEIKRTVAAPDIQMTQSPSSLSASVGDRVTITCSASQDISNYLNWYQQKPGKAPKVLIYFTSSLHSGVPSRFSGSGSGTDFTLTISSLQPEDFATYYCQQYSTVPWTFGQGTKVEIKR
notes: HC vector V1 (wild-type hIgG1 constant), LC vector V2 (kappa constant); also called DVD044H; DVD044L
In experiment [1], B1 returned an EC50 of 0.53 nM.

B2: AB063 (anti-ErbB3 (seq. 2) parent antibody) (antibody, IgG1, V domains shown)
VH: EVQLVESGGGLVQPGGSLRLSCAASGFTFSIYSMNWVRQAPGKGLEWVSYISSSSSTIYYADSVKGRFTISRDNAKNSLYLQMNSLRDEDTAVYYCARDRGDFDAFDIWGQGTMVTVSS
VL: DIQMTQSPSSLSASVGDRVTITCQASQDITNYLNWYQQKPGKAPKLLIYDASNLETGVPSRFSGSGSGTDFTFTISSLQPEDIATYNCQQCENFPITFGQGTRLEIKR
notes: HC vector V1 (wild-type hIgG1 constant), LC vector V2 (kappa constant); also called AB063VH; AB063VL
B2 gave an EC50 in experiment [2] of 0.28 nM.

B3: DVD034 (HGF (seq. 1) and RON (seq. 1) DVD-Ig) (bispecific antibody, IgG1)
VH: QVQLVESGGGLVKPGGSLRLSCAASGFTFSDYYMSWIRQAPGKGLEWVSYISSSGSTIYYADSVKGRFTISRDNAKNSLYLQMNSLRAEDTAVYYCARDEYNSGWYVLFDYWGQGTLVTVSSASTKGPEVQLVQSGGGLVKPGGSLRLSCAASGFTFSSYAMHWVRQAPGKGLEWVAVISYDGSNKYYADSVKGRFTISRDNSKNTLYLQMNSLRAEDTAVYYCARFSGWPNNYYYYGMDVWGQGTTVTVSS
VL: DIQMTQSPSSVSASVGDRVTITCRASQGISSWLAWYQQKPGKAPNLLIYEASSLQSGVPSRFGGSGSGTDFTLTISSLQPEDFATYYCQQANGFPWTFGQGTKVEIKRTVAAPDVVMTQSPLSLPVTPGEPASISCRSSQSLLHSNGFNYVDWYLQKPGQSPHLLIYFGSYRASGVPDRFSGSGSGTDFTLKISRVEAEDVGVYYCMQALQTPPWTFGQGTKVEIRR
notes: Outer AB012, inner AB005; HC vector V1 (wild-type hIgG1 constant), LC vector V2 (kappa constant); also called DVD034L
In the case of B3, the EC50 in experiment [3] came to 116 nM; in experiment [4] it was 0.27 nM.

B4: DVD260 (PLGF (seq. 1) and VEGF (seq. 1) DVD-Ig) (bispecific antibody, IgG1)
VH: QVQLQQSGAELVKPGASVKISCKASGYTFTDYYINWVKLAPGQGLEWIGWIYPGSGNTKYNEKFKGKATLTIDTSSSTAYMQLSSLTSEDTAVYFCVRDSPFFDYWGQGTLLTVSSASTKGPEVQLVESGGGLVQPGGSLRLSCAASGYTFTNYGMNWVRQAPGKGLEWVGWINTYTGEPTYAADFKRRFTFSLDTSKSTAYLQMNSLRAEDTAVYYCAKYPHYYGSSHWYFDVWGQGTLVTVSS
VL: DIVLTQSPDSLAVSLGERVTMNCKSSQSLLNSGMRKSFLAWYQQKPGQSPKLLIYWASTRESGVPDRFTGSGSGTDFTLTISSVQAEDVAVYYCKQSYHLFTFGSGTKLEIKRTVAAPDIQMTQSPSSLSASVGDRVTITCSASQDISNYLNWYQQKPGKAPKVLIYFTSSLHSGVPSRFSGSGSGTDFTLTISSLQPEDFATYYCQQYSTVPWTFGQGTKVEIKR
notes: HC vector V1 (wild-type hIgG1 constant), LC vector V2 (kappa constant); also called VD260H; VD260L
B4: a half-maximal effect in experiment [5] (EC50) was put at 0.12 nM.

B5: DVD046 (HGF (seq. 1) and VEGF (seq. 1) DVD-Ig) (bispecific antibody, IgG1)
VH: QVQLVESGGGLVKPGGSLRLSCAASGFTFSDYYMSWIRQAPGKGLEWVSYISSSGSTIYYADSVKGRFTISRDNAKNSLYLQMNSLRAEDTAVYYCARDEYNSGWYVLFDYWGQGTLVTVSSASTKGPEVQLVESGGGLVQPGGSLRLSCAASGYTFTNYGMNWVRQAPGKGLEWVGWINTYTGEPTYAADFKRRFTFSLDTSKSTAYLQMNSLRAEDTAVYYCAKYPHYYGSSHWYFDVWGQGTLVTVSS
VL: DIQMTQSPSSVSASVGDRVTITCRASQGISSWLAWYQQKPGKAPNLLIYEASSLQSGVPSRFGGSGSGTDFTLTISSLQPEDFATYYCQQANGFPWTFGQGTKVEIKRTVAAPDIQMTQSPSSLSASVGDRVTITCSASQDISNYLNWYQQKPGKAPKVLIYFTSSLHSGVPSRFSGSGSGTDFTLTISSLQPEDFATYYCQQYSTVPWTFGQGTKVEIKR
notes: HC vector V1 (wild-type hIgG1 constant), LC vector V2 (kappa constant); also called DVD046L
In experiment [4], B5 displayed an EC50 of 0.5 nM.

B6: DVD043 (VEGF (seq. 1) and DLL4 (seq. 1) DVD-Ig) (bispecific antibody, IgG1)
VH: EVQLVESGGGLVQPGGSLRLSCAASGYTFTNYGMNWVRQAPGKGLEWVGWINTYTGEPTYAADFKRRFTFSLDTSKSTAYLQMNSLRAEDTAVYYCAKYPHYYGSSHWYFDVWGQGTLVTVSSASTKGPEVQLVESGGGLVQPGGSLRLSCAASGFTFTDNWISWVRQAPGKGLEWVGYISPNSGFTYYADSVKGRFTISADTSKNTAYLQMNSLRAEDTAVYYCARDNFGGYFDYWGQGTLVTVSS
VL: DIQMTQSPSSLSASVGDRVTITCSASQDISNYLNWYQQKPGKAPKVLIYFTSSLHSGVPSRFSGSGSGTDFTLTISSLQPEDFATYYCQQYSTVPWTFGQGTKVEIKRTVAAPDIQMTQSPSSLSASVGDRVTITCRASQDVSTAVAWYQQKPGKAPKLLIYSASFLYSGVPSRFSGSGSGTDFTLTISSLQPEDFATTYYCQQSYTGTVTFGQGTKVEIKR
notes: HC vector V1 (wild-type hIgG1 constant), LC vector V2 (kappa constant); also called DVD043H; DVD043L
B6 came in with a concentration giving a half-maximal response (EC50) in experiment [6] of 2.12 nM.

B7: DVD047 (VEGF (seq. 1) and RON (seq. 1) DVD-Ig) (bispecific antibody, IgG1)
VH: EVQLVESGGGLVQPGGSLRLSCAASGYTFTNYGMNWVRQAPGKGLEWVGWINTYTGEPTYAADFKRRFTFSLDTSKSTAYLQMNSLRAEDTAVYYCAKYPHYYGSSHWYFDVWGQGTLVTVSSASTKGPEVQLVQSGGGLVKPGGSLRLSCAASGFTFSSYAMHWVRQAPGKGLEWVAVISYDGSNKYYADSVKGRFTISRDNSKNTLYLQMNSLRAEDTAVYYCARFSGWPNNYYYYGMDVWGQGTTVTVSS
VL: DIQMTQSPSSLSASVGDRVTITCSASQDISNYLNWYQQKPGKAPKVLIYFTSSLHSGVPSRFSGSGSGTDFTLTISSLQPEDFATYYCQQYSTVPWTFGQGTKVEIKRTVAAPDVVMTQSPLSLPVTPGEPASISCRSSQSLLHSNGFNYVDWYLQKPGQSPHLLIYFGSYRASGVPDRFSGSGSGTDFTLKISRVEAEDVGVYYCMQALQTPPWTFGQGTKVEIRR
notes: HC vector V1 (wild-type hIgG1 constant), LC vector V2 (kappa constant); also called DVD047H; DVD047L
In experiment [3], B7 returned a 50% effective concentration (EC50) of 94.8 nM.

B8: DVD258 (PLGF (seq. 1) and DLL-4 (seq. 1) DVD-Ig) (bispecific antibody, IgG1)
VH: QVQLQQSGAELVKPGASVKISCKASGYTFTDYYINWVKLAPGQGLEWIGWIYPGSGNTKYNEKFKGKATLTIDTSSSTAYMQLSSLTSEDTAVYFCVRDSPFFDYWGQGTLLTVSSASTKGPEVQLVESGGGLVQPGGSLRLSCAASGFTFTDNWISWVRQAPGKGLEWVGYISPNSGFTYYADSVKGRFTISADTSKNTAYLQMNSLRAEDTAVYYCARDNFGGYFDYWGQGTLVTVSS
VL: DIVLTQSPDSLAVSLGERVTMNCKSSQSLLNSGMRKSFLAWYQQKPGQSPKLLIYWASTRESGVPDRFTGSGSGTDFTLTISSVQAEDVAVYYCKQSYHLFTFGSGTKLEIKRTVAAPDIQMTQSPSSLSASVGDRVTITCRASQDVSTAVAWYQQKPGKAPKLLIYSASFLYSGVPSRFSGSGSGTDFTLTISSLQPEDFATTYYCQQSYTGTVTFGQGTKVEIKR
notes: Outer AB047, inner AB015; HC vector V1 (wild-type hIgG1 constant), LC vector V2 (kappa constant); also called VD258H; VD258L
In the case of B8, the EC50 in experiment [6] came to 2.3 nM; in experiment [5], 0.08 nM.

B9: AB062 (anti-ErbB3 (seq. 1) parent antibody) (antibody, IgG1, V domains shown)
VH: QVQLQQWGAGLLKPSETLSLTCAVYGGSFSGYYWSWIRQPPGKGLEWIGEINHSGSTNYNPSLKSRVTISVETSKNQFSLKLSSVTAADTAVYYCARDKWTWYFDLWGRGTLVTVSS
VL: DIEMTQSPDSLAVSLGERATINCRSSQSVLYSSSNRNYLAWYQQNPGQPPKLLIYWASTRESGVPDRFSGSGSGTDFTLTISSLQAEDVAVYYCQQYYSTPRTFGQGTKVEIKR
notes: HC vector V1 (wild-type hIgG1 constant), LC vector V2 (kappa constant); also called AB062VH; AB062VL
The molecule B9 registered a 50% effective concentration (EC50) in experiment [2] of 1.93 nM.

B10: DVD259 (VEGF (seq. 1) and PLGF (seq. 1) DVD-Ig) (bispecific antibody, IgG1)
VH: EVQLVESGGGLVQPGGSLRLSCAASGYTFTNYGMNWVRQAPGKGLEWVGWINTYTGEPTYAADFKRRFTFSLDTSKSTAYLQMNSLRAEDTAVYYCAKYPHYYGSSHWYFDVWGQGTLVTVSSASTKGPQVQLQQSGAELVKPGASVKISCKASGYTFTDYYINWVKLAPGQGLEWIGWIYPGSGNTKYNEKFKGKATLTIDTSSSTAYMQLSSLTSEDTAVYFCVRDSPFFDYWGQGTLLTVSS
VL: DIQMTQSPSSLSASVGDRVTITCSASQDISNYLNWYQQKPGKAPKVLIYFTSSLHSGVPSRFSGSGSGTDFTLTISSLQPEDFATYYCQQYSTVPWTFGQGTKVEIKRTVAAPDIVLTQSPDSLAVSLGERVTMNCKSSQSLLNSGMRKSFLAWYQQKPGQSPKLLIYWASTRESGVPDRFTGSGSGTDFTLTISSVQAEDVAVYYCKQSYHLFTFGSGTKLEIKR
notes: HC vector V1 (wild-type hIgG1 constant), LC vector V2 (kappa constant); also called VD259H; VD259L
For the molecule B10, it took 1.3 nM to reach a half-maximal effect in experiment [7] (EC50).

B11: DVD257 (DLL-4 (seq. 1) and PLGF (seq. 1) DVD-Ig) (bispecific antibody, IgG1)
VH: EVQLVESGGGLVQPGGSLRLSCAASGFTFTDNWISWVRQAPGKGLEWVGYISPNSGFTYYADSVKGRFTISADTSKNTAYLQMNSLRAEDTAVYYCARDNFGGYFDYWGQGTLVTVSSASTKGPQVQLQQSGAELVKPGASVKISCKASGYTFTDYYINWVKLAPGQGLEWIGWIYPGSGNTKYNEKFKGKATLTIDTSSSTAYMQLSSLTSEDTAVYFCVRDSPFFDYWGQGTLLTVSS
VL: DIQMTQSPSSLSASVGDRVTITCRASQDVSTAVAWYQQKPGKAPKLLIYSASFLYSGVPSRFSGSGSGTDFTLTISSLQPEDFATTYYCQQSYTGTVTFGQGTKVEIKRTVAAPDIVLTQSPDSLAVSLGERVTMNCKSSQSLLNSGMRKSFLAWYQQKPGQSPKLLIYWASTRESGVPDRFTGSGSGTDFTLTISSVQAEDVAVYYCKQSYHLFTFGSGTKLEIKR
notes: Outer AB015, inner AB047; HC vector V1 (wild-type hIgG1 constant), LC vector V2 (kappa constant); also called 7H; VD257L
As for B11, the half-maximal effective concentration (EC50) in experiment [7] came to 2 nM; in experiment [1], 0.28 nM.
